US20240150491A1 (Genentech, published 2024)
Numbering of substitutions follows the chain as printed.

T1: cynomolgus monkey KLK5 (cynomolgus monkey, UniProt Q9Y337 67-293 (human entry))
T1 chain: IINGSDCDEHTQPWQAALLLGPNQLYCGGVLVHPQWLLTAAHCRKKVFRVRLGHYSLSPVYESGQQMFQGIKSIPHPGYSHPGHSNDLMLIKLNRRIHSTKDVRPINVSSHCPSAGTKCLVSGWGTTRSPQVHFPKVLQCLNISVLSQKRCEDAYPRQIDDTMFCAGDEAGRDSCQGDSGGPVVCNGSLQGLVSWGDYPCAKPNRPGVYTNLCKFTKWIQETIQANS

T2: human KLK5 (human, UniProt Q9Y337 67-293)
T2 sequence: T1 chain with E9M, G21R, G29A, I71V, H98R, S99P, R128K, E169K, K202R

B1: hu.10C5VY.hu14H11c.L2H11 WT (bispecific antibody, human IgG1, kappa, N297G)
heavy 1: not shown
light 1: DIQMTQSPSSLSASVGDRVTITCLASEDIASSVSWYQKKPGKAPKLLIYGASNLESGVPSRFSGSGSGTDYTLTISSLQPEDFATYYCLGGYSYSSTGTAFGGGTKVEIKRTVAAPSVFIFPPSDEQLKSGTASVECLLNNFYPREAKVQWKVDNALQSGNSQESVTEQDSKDSTYSLSSTLTLSKADYEKHKVYACEVTHQGLSSPVTKSFNRGEC
heavy 2: EVQLVESGGGLVQPGGSLRLSCAASGFSLSSYGVTWVRKAPGKGLEWIGYITSVYGVSYYASWAKSRSTISRDTSKNTVYLQMGSLRAEDMAVYYCARENPDYGYAYDAWGQGTTVTVSSASTKGPSVFPLAPSSKSTSGGTAALGCLVKDYFPEPVTVSWNSGALTSGVHTFPAVLQSSGLYSLESVVTVPSSSLGTQTYICNVNHKPSNTKVDKKVEPKSCDKTHTCPPCPAPELLGGPSVFLFPPKPKDTLMISRTPEVTCVVVDVSHEDPEVKFNWYVDGVEVHNAKTKPREEQYGSTYRVVSVLTVLHQDWLNGKEYKCKVSNKALPAPIEKTISKAKGQPREPQVYTLPPSREEMTKNQVSLSCAVKGFYPSDIAVEWESNGQPENNYKTTPPVLDSDGSFFLVSKLTVDKSRWQQGNVFSCSVMHEALHNHYTQKSLSLSPGK
light 2: AIRMTQSPSSFSASTGDRVTITCQASESISNELSWYQEKPGKAPKLLIYYASTLASGVPSRFSGSGSGTDFTLTISSLQPEDFATYYCAQGYGSSGVENVFGGGTKVEIKRTVAAPSVFIFPPSDEQLKSGTASVKCLLNNFYPREAKVQWKVDNALQSGNSQESVTEQDSKDSTYSLSSTLTLSKADYEKHKVYACEVTHQGLSSPVTKSFNRGEC
B2: hu.10C5VY.hu14H11c.L2H11 LS (bispecific antibody, human IgG1, kappa, N297G)
heavy 1: EQQLVESGGGLIQPGGSLRLSCAASGFSFSSSYYMSWVREAPGKGLEWVSSIYAGSSGAPYYAGWAKGRFTISRDNSKNTLYLQMNSLRAEDTAVYYCAREGFAETGGYGYAAYFNLWGPGTLVTVSSASTKGPSVFPLAPSSKSTSGGTAALGCLVKDYFPEPVTVSWNSGALTSGVHTFPAVLQSSGLYSLKSVVTVPSSSLGTQTYICNVNHKPSNTKVDKKVEPKSCDKTHTCPPCPAPELLGGPSVFLFPPKPKDTLMISRTPEVTCVVVDVSHEDPEVKFNWYVDGVEVHNAKTKPREEQYGSTYRVVSVLTVLHQDWLNGKEYKCKVSNKALPAPIEKTISKAKGQPREPQVYTLPPSREEMTKNQVSLWCLVKGFYPSDIAVEWESNGQPENNYKTTPPVLDSDGSFFLYSKLTVDKSRWQQGNVFSCSVLHEALHSHYTQKSLSLSPGK
light 1: B1 light 1
heavy 2: B1 heavy 2 with M431L, N437S
light 2: B1 light 2
B3: hu.14H11c.L2H11-hIgG1 (antibody, V domains shown)
VH: EQQLVESGGGLIQPGGSLRLSCAASGFSFSSSYYMSWVRQAPGKGLEWVSSIYAGSSGAPYYAGWAKGRFTISRDNSKNTLYLQMNSLRAEDTAVYYCAREGFAETGGYGYAAYFNLWGPGTLVTVSS
VL: DIQMTQSPSSLSASVGDRVTITCLASEDIASSVSWYQQKPGKAPKLLIYGASNLESGVPSRFSGSGSGTDYTLTISSLQPEDFATYYCLGGYSYSSTGTAFGGGTKVEIK
B4: hu10C5VY (antibody, V domains shown)
VH: EVQLVESGGGLVQPGGSLRLSCAASGFSLSSYGVTWVRQAPGKGLEWIGYITSVYGVSYYASWAKSRSTISRDTSKNTVYLQMGSLRAEDMAVYYCARENPDYGYAYDAWGQGTTVTVSS
VL: AIRMTQSPSSFSASTGDRVTITCQASESISNELSWYQQKPGKAPKLLIYYASTLASGVPSRFSGSGSGTDFTLTISSLQPEDFATYYCAQGYGSSGVENVFGGGTKVEIK
B5: 14H11 (antibody, V domains shown)
VH: QSLEESGGDLVKPGASLTLTCTASGFSFSSSYYMCWVRQAPGKGLEWIASIYAGSSGAPYYAGWAKGRFTISKTSSTAVTLQMSSLTAADTATYFCAREGFAETGGYGYAAYFNLWGPGTLVTVSS
VL: AIEMTQSPPSLSASVGETVRIRCLASEDIASSVSWYQQKPGKPPTLLIYGASNLESGVPPRFTGSGSGTDYTLTIGGVQAEDAATYYCLGGYSYSSTGTAFGAGTKVEIK

What follows are binders tested against T3, cyno KLK7 (SEQ ID NO: 6 plus a C-terminal FLAG tag) (cynomolgus monkey, UniProt P49862 30-253 (human entry)) (assay: cell-based or functional assay).
T3 sequence (P49862 other isoform, or with tags, fused parts or gaps): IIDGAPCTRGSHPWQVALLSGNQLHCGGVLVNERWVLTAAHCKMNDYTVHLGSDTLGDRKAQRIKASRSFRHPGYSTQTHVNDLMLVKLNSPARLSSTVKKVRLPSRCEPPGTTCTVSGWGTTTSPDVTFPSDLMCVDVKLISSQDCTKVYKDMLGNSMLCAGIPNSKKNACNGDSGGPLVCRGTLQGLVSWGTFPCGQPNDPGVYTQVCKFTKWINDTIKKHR
In the case of B1, the “IC50, inhibition of KLK7 cleavage of Mca-RPKPVE-Nval-WRK(Dnp) (bivalency corrected)” value is reported as 0.37 nM.
For B2, the “IC50, inhibition of KLK7 cleavage of Mca-RPKPVE-Nval-WRK(Dnp) (bivalency corrected)” value was 0.36 nM.
For B3, the “IC50, inhibition of KLK7 cleavage of Mca-RPKPVE-Nval-WRK(Dnp) (bivalency corrected)” value was 0.29 nM.
For B4, the “IC50, inhibition of KLK7 cleavage of Mca-RPKPVE-Nval-WRK(Dnp) (bivalency corrected)” value was > 10 nM.

Biological target: T1, cynomolgus monkey KLK5
Experiment: cell-based or functional assay
B1 was tested, and the “IC50, inhibition of KLK5 cleavage of Boc-Val-Pro-Arg-AMC (bivalency corrected)” value was 0.73 nM.
B2 was tested, and the “IC50, inhibition of KLK5 cleavage of Boc-Val-Pro-Arg-AMC (bivalency corrected)” value was 0.58 nM.
In the case of B3, the “IC50, inhibition of KLK5 cleavage of Boc-Val-Pro-Arg-AMC (bivalency corrected)” value is reported as > 10 nM.
For B4, the “IC50, inhibition of KLK5 cleavage of Boc-Val-Pro-Arg-AMC (bivalency corrected)” value was 0.56 nM.

Each binder was assayed against T4, human KLK7 (SEQ ID NO: 4 plus a C-terminal FLAG tag) (human, UniProt P49862 30-253) (assay: cell-based or functional assay).
T4 sequence (P49862 30-253): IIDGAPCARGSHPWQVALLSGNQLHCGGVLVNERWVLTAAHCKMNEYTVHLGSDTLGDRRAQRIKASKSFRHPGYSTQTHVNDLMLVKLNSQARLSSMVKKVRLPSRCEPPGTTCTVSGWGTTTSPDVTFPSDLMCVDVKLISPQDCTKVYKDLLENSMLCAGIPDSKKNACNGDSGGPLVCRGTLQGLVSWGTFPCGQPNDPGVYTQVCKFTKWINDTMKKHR
For B5, the “IC50, inhibition of KLK7 cleavage of MCA peptide substrate (bivalency not accounted for)” value was 0.11 nM.

Biological target: T3, cyno KLK7 (SEQ ID NO: 6 plus a …)
Experiment: cell-based or functional assay
Remark: another data set of the same source
In the case of B5, the “IC50, inhibition of KLK7 cleavage of MCA peptide substrate (bivalency not accounted for)” value is reported as 0.15 nM.

Biological target: T4, human KLK7 (SEQ ID NO: 4 plus a …)
Experiment: cell-based or functional assay
Remark: another data set of the same source
For B1, the “IC50, inhibition of KLK7 cleavage of Mca-RPKPVE-Nval-WRK(Dnp) (bivalency corrected)” value was 0.37 nM.
For B2, the “IC50, inhibition of KLK7 cleavage of Mca-RPKPVE-Nval-WRK(Dnp) (bivalency corrected)” value was 0.34 nM.
B3 was tested, and the “IC50, inhibition of KLK7 cleavage of Mca-RPKPVE-Nval-WRK(Dnp) (bivalency corrected)” value was 0.29 nM.
In the case of B4, the “IC50, inhibition of KLK7 cleavage of Mca-RPKPVE-Nval-WRK(Dnp) (bivalency corrected)” value is reported as > 10 nM.

These binders were tested against T2, human KLK5 (assay: cell-based or functional assay).
For B1, the “IC50, inhibition of KLK5 cleavage of Boc-Val-Pro-Arg-AMC (bivalency corrected)” value was 0.67 nM.
For B2, the “IC50, inhibition of KLK5 cleavage of Boc-Val-Pro-Arg-AMC (bivalency corrected)” value was 0.54 nM.
B3 was tested, and the “IC50, inhibition of KLK5 cleavage of Boc-Val-Pro-Arg-AMC (bivalency corrected)” value was > 10 nM.
For B4, the “IC50, inhibition of KLK5 cleavage of Boc-Val-Pro-Arg-AMC (bivalency corrected)” value was 0.46 nM.
